{
  "source": "patent US20140072613A1",
  "about": "“Compositions and Methods for Treating Cutaneous Scarring” (priority 2012, published 2014)",
  "assay_in_all_cases": "cell-based or functional assay",
  "key": {"RIPK2(h) (human)": {"target": "RIPK2(h) (human) (UniProt O43353)"}, "DCAMKL2(h) (human)": {"target": "T1, DCAMKL2(h) (human) (UniProt Q8N568)", "T1 sequence (looked up)": "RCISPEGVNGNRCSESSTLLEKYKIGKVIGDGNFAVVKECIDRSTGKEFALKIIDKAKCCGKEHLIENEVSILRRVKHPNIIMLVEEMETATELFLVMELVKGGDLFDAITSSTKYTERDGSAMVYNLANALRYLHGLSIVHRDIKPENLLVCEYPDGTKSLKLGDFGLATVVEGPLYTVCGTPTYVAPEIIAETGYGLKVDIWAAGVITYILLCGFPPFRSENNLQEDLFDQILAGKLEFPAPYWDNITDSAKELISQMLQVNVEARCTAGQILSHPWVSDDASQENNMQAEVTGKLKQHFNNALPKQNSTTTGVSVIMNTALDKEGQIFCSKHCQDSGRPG"}, "SRPK1(h) (human)": {"target": "SRPK1(h) (human) (UniProt Q96SB4)"}, "cKit(V654A)(h) (human)": {"target": "cKit(V654A)(h) (human) (UniProt P10721)"}, "SGK(h) (human)": {"target": "SGK(h) (human) (UniProt O00141)"}, "Lck(h) activated (human)": {"target": "Lck(h) activated (human) (UniProt P06239)", "sequence (P06239 whole entry)": "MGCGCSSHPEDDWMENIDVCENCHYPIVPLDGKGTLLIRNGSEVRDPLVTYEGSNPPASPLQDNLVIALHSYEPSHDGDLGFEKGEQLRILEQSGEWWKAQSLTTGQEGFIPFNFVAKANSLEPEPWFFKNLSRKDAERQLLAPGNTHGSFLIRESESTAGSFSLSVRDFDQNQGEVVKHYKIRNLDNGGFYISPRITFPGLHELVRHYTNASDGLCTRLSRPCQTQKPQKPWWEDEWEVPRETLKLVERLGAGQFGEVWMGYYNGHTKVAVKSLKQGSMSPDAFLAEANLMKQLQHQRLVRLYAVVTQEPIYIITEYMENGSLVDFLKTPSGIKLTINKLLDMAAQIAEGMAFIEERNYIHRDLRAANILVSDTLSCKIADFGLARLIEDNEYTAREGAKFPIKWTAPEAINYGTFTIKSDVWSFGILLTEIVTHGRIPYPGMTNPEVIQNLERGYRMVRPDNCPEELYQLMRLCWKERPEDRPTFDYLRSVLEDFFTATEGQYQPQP"}, "CHK1(h) (human)": {"target": "T2, CHK1(h) (human) (UniProt O14757)", "T2 sequence (looked up)": "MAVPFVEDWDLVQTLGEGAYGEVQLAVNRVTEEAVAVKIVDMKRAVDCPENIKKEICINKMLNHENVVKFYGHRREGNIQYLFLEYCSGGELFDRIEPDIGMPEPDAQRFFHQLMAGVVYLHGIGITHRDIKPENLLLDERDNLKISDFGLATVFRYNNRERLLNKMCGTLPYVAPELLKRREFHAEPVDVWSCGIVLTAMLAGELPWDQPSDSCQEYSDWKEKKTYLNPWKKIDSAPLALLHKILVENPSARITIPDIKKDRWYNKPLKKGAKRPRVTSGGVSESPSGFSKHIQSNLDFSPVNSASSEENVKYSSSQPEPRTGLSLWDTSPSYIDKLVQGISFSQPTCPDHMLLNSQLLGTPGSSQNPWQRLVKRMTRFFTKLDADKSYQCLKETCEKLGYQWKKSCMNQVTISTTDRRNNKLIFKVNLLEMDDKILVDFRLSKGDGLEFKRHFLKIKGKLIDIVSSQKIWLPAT"}, "ALK4(h) (human)": {"target": "T3, ALK4(h) (human) (UniProt P36896)", "T3 sequence (looked up)": "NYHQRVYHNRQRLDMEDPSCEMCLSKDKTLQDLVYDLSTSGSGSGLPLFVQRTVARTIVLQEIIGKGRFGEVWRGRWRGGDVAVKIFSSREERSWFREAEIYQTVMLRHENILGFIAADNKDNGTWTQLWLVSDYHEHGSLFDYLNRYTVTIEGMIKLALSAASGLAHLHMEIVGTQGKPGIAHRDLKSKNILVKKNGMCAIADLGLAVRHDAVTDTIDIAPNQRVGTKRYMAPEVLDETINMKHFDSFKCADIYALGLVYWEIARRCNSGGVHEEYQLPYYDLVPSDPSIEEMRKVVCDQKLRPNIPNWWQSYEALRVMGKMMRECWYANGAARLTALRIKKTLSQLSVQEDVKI"}, "SAPK2a(T106M)(h) (human)": {"target": "SAPK2a(T106M)(h) (human) (UniProt Q16539)", "sequence (Q16539 whole entry T106M)": "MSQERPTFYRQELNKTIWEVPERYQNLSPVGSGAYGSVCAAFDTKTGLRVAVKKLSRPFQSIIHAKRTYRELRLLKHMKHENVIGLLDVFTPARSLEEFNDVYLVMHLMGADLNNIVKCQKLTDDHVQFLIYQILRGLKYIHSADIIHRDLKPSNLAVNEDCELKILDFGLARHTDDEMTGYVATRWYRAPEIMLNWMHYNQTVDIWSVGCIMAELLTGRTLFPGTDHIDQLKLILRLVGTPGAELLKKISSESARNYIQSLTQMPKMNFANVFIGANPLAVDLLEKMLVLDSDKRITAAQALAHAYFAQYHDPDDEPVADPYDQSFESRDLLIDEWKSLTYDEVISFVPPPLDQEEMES"}, "DYRK2(h) (human)": {"target": "DYRK2(h) (human) (UniProt Q92630)"}, "IRAK1(h) (human)": {"target": "IRAK1(h) (human) (UniProt P51617)", "sequence (P51617 194-712 limits assumed)": "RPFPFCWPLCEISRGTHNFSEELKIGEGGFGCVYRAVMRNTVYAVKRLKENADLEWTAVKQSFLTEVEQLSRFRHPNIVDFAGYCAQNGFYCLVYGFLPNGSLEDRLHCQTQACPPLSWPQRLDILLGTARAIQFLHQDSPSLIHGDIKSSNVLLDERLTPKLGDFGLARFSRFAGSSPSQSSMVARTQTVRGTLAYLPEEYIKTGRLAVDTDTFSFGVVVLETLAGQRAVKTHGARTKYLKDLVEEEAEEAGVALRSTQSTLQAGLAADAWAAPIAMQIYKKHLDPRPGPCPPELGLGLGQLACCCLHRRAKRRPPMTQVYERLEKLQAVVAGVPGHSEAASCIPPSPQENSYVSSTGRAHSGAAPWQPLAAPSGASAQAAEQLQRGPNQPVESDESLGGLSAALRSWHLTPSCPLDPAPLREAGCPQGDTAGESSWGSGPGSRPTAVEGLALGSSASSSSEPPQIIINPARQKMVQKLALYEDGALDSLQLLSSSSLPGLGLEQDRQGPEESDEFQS"}, "Flt1(h) (human)": {"target": "T4, Flt1(h) (human) (UniProt P17948)", "T4 sequence (looked up)": "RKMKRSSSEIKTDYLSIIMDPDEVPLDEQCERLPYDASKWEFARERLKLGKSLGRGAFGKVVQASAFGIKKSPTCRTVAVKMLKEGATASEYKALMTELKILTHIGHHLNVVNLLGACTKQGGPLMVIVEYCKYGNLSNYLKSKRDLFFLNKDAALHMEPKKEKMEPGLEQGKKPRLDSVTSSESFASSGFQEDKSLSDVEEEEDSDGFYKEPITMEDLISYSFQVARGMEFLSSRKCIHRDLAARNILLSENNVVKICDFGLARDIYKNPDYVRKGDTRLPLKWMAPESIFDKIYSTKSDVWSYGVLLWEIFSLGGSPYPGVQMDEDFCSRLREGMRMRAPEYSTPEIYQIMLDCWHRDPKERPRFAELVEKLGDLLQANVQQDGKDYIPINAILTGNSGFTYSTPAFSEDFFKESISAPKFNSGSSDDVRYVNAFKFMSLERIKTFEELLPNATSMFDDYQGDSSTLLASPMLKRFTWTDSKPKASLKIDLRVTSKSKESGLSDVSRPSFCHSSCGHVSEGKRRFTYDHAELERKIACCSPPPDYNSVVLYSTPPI"}, "PKA(h) (human)": {"target": "PKA(h) (human) (UniProt P17612)"}, "STK33(h) (human)": {"target": "STK33(h) (human) (UniProt Q9BYT3)", "sequence (Q9BYT3 whole entry)": "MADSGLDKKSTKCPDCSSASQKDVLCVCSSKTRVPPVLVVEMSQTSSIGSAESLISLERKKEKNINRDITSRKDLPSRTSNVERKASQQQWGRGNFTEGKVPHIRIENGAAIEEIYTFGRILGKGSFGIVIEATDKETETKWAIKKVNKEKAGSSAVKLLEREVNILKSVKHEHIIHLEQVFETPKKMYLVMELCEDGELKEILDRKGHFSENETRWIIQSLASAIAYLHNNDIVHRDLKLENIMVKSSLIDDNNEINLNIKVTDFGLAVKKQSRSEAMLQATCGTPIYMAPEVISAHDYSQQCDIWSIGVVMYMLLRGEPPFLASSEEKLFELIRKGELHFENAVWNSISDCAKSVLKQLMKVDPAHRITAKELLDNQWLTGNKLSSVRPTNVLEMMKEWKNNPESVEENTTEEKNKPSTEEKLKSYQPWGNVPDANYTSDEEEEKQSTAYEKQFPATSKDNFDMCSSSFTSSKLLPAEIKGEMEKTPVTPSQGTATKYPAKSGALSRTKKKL"}, "CHK2(I157T)(h) (human)": {"target": "CHK2(I157T)(h) (human) (UniProt O96017)"}, "SAPK2b(h) (human)": {"target": "SAPK2b(h) (human) (UniProt Q15759)", "sequence (Q15759 whole entry)": "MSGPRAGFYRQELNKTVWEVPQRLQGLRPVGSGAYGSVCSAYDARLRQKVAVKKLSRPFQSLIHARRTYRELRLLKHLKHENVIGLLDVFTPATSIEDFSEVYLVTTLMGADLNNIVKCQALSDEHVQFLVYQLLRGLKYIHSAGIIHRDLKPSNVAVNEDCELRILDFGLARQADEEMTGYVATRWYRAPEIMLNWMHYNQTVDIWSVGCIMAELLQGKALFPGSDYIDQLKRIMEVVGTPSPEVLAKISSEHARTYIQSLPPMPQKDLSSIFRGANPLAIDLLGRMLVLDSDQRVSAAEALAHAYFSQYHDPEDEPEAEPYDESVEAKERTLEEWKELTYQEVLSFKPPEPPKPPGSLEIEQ"}, "ALK(h) (human)": {"target": "ALK(h) (human) (UniProt Q9UM73)", "sequence (Q9UM73 1058-1620 limits assumed)": "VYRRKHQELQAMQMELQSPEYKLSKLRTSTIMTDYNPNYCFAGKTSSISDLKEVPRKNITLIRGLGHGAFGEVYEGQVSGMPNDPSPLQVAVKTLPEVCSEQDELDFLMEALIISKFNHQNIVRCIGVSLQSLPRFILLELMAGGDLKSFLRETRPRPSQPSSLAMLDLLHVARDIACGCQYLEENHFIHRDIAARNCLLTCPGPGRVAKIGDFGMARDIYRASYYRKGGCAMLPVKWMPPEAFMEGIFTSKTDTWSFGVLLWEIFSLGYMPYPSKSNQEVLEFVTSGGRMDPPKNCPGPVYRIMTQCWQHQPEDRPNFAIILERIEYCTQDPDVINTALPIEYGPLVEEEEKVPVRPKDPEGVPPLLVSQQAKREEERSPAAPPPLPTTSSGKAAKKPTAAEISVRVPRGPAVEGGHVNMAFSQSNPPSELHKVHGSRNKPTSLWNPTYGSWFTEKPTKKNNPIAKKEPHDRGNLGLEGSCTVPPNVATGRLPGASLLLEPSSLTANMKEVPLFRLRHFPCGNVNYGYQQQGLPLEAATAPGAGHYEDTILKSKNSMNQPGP"}, "Tie2(h) (human)": {"target": "Tie2(h) (human) (UniProt Q02763)"}, "Met(Y1248D)(h) (human)": {"target": "Met(Y1248D)(h) (human) (UniProt P08581)"}, "MRCKβ(h) (human)": {"target": "MRCKβ(h) (human) (UniProt Q9Y5S2)"}, "PDGFRα(h) (human)": {"target": "PDGFRα(h) (human) (UniProt P16234)", "sequence (P16234 550-1089 limits assumed)": "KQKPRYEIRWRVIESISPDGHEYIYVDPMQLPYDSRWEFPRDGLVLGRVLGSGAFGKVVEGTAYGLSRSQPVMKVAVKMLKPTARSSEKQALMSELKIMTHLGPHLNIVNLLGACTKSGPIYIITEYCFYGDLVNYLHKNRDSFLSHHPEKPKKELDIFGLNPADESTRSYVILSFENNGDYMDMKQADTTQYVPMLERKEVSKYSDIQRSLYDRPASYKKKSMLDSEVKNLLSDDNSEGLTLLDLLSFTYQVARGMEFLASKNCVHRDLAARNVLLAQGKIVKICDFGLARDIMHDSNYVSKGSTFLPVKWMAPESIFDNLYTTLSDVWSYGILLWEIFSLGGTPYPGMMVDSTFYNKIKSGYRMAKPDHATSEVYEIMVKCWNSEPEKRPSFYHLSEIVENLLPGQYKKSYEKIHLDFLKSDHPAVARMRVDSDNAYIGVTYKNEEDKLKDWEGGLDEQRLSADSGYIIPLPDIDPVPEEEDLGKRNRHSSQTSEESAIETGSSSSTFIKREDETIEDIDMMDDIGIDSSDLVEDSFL"}, "Mnk2(h) (human)": {"target": "Mnk2(h) (human) (UniProt Q9HBH9)", "sequence (Q9HBH9 whole entry)": "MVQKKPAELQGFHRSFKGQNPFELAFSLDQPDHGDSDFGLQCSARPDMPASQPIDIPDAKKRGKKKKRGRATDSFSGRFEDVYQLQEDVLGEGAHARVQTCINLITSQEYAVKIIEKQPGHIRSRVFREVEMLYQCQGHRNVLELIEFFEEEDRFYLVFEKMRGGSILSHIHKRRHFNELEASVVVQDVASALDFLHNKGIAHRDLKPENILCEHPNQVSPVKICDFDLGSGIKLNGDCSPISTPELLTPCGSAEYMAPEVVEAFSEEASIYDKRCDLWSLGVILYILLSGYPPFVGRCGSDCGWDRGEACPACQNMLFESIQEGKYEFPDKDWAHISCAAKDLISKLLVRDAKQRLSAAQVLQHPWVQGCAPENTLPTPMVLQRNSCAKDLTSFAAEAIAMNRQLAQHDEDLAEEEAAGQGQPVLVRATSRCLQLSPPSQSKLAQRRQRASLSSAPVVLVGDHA"}, "SAPK2a(h) (human)": {"target": "SAPK2a(h) (human) (UniProt Q16539)", "sequence (Q16539 whole entry)": "as the sequence (Q16539 whole entry T106M) above, with M106T counted along it"}, "Met(Y1248H)(h) (human)": {"target": "Met(Y1248H)(h) (human) (UniProt P08581)"}, "PKCγ(h) (human)": {"target": "PKCγ(h) (human) (UniProt P05129)"}, "MINK(h) (human)": {"target": "MINK(h) (human) (UniProt Q8N4C8)"}, "TrkB(h) (human)": {"target": "TrkB(h) (human) (UniProt Q16620)", "sequence (Q16620 455-822 limits assumed)": "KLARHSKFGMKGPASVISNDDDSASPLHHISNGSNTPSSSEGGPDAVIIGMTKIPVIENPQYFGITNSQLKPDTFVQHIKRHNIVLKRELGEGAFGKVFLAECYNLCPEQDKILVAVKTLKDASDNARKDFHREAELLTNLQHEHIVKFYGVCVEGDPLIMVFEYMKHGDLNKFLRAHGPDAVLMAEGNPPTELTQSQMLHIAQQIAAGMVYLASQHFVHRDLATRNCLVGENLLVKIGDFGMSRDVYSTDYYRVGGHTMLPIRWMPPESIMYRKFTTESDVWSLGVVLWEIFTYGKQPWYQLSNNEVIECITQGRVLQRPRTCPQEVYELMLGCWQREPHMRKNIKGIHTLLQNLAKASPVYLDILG"}},
  "data": [
    {"substance": "MMI-0500 (peptide)", "values": [
      {"measurement": "% activity, 100 µM", "setting": "RIPK2(h) (human)", "result": 30, "unit": "%"},
      {"measurement": "% activity, 100 µM", "setting": "DCAMKL2(h) (human)", "result": 56, "unit": "%"},
      {"measurement": "% activity, 100 µM", "setting": "SRPK1(h) (human)", "result": 80, "unit": "%"},
      {"measurement": "% activity, 100 µM", "setting": "cKit(V654A)(h) (human)", "result": 223, "unit": "%"},
      {"measurement": "% activity, 100 µM", "setting": "SGK(h) (human)", "result": 2, "unit": "%"},
      {"measurement": "% activity, 100 µM", "setting": "Lck(h) activated (human)", "result": 76, "unit": "%"},
      {"measurement": "% activity, 100 µM", "setting": "CHK1(h) (human)", "result": 65, "unit": "%"},
      {"measurement": "% activity, 100 µM", "setting": "ALK4(h) (human)", "result": 81, "unit": "%"},
      {"measurement": "% activity, 100 µM", "setting": "SAPK2a(T106M)(h) (human)", "result": 32, "unit": "%"},
      {"measurement": "% activity, 100 µM", "setting": "DYRK2(h) (human)", "result": 127, "unit": "%"},
      {"measurement": "% activity, 100 µM", "setting": "IRAK1(h) (human)", "result": 5, "unit": "%"},
      {"measurement": "% activity, 100 µM", "setting": "Flt1(h) (human)", "result": 27, "unit": "%"},
      {"measurement": "% activity, 100 µM", "setting": "PKA(h) (human)", "result": 118, "unit": "%"},
      {"measurement": "% activity, 100 µM", "setting": "STK33(h) (human)", "result": 16, "unit": "%"},
      {"measurement": "% activity, 100 µM", "setting": "CHK2(I157T)(h) (human)", "result": 3, "unit": "%"},
      {"measurement": "% activity, 100 µM", "setting": "SAPK2b(h) (human)", "result": 42, "unit": "%"},
      {"measurement": "% activity, 100 µM", "setting": "ALK(h) (human)", "result": 12, "unit": "%"},
      {"measurement": "% activity, 100 µM", "setting": "Tie2(h) (human)", "result": 22, "unit": "%"},
      {"measurement": "% activity, 100 µM", "setting": "Met(Y1248D)(h) (human)", "result": 218, "unit": "%"},
      {"measurement": "% activity, 100 µM", "setting": "MRCKβ(h) (human)", "result": -10, "unit": "%"},
      {"measurement": "% activity, 100 µM", "setting": "PDGFRα(h) (human)", "result": 40, "unit": "%"},
      {"measurement": "% activity, 100 µM", "setting": "Mnk2(h) (human)", "result": 6, "unit": "%"},
      {"measurement": "% activity, 100 µM", "setting": "SAPK2a(h) (human)", "result": 52, "unit": "%"},
      {"measurement": "% activity, 100 µM", "setting": "Met(Y1248H)(h) (human)", "result": 126, "unit": "%"},
      {"measurement": "% activity, 100 µM", "setting": "PKCγ(h) (human)", "result": 6, "unit": "%"},
      {"measurement": "% activity, 100 µM", "setting": "MINK(h) (human)", "result": 5, "unit": "%"},
      {"measurement": "% activity, 100 µM", "setting": "TrkB(h) (human)", "result": 12, "unit": "%"},
      {"measurement": "inhibition of kinase activity at 100 µM", "setting": "TrkB(h) (human)", "result": "> 65", "unit": "%"}
    ]}
  ]
}
